Measured values published in PMC8464830.

Legend:
Experiment in all cases: SPR
[1] = molecular target: HIV-1 MA protein from clade B (LAI), full-length (HIV-1 clade B (LAI))
[2] = molecular target: HIV-1 MA protein from clade B (NL4-3), full-length (HIV-1 clade B (NL4-3))
[3] = molecular target: HIV-1 MA protein from clade D (94UG114.1), full-length (HIV-1 clade D (94UG114.1))

Substance: human Calmodulin-1 (from UniProt P0DP23 1-149) (natural protein)
- Kd [1]: 49 µM
- Kd [2]: 27.6 µM
- Kd [3]: 33.3 µM
